B1: CPEB3 Ribozyme (parent)
chain: GGGGGCCACAGCAGAAGCGUUCACGUCGCGGCCCCUGUCAGAUUCUGGUGAAUCUGCGAAUUCUGCUGU

Results on 39 variants are retold here after the RNAGym collection of RNA variant scans (doi:10.7554/elife.80360).

Variants of B1 are the subject of this data set. Nature of the data set: self-cleavage, relative activity (ratio to wild type); higher = more cleavage; co-transcriptional.
GGGCGCCACAGCAGAAGCGUUCACGUCGCGGCCCCUGUCAGAUUCUGGUGAAUCUGGGAAUUCUGCUGU [G4C C57G]: the self-cleavage worked out at 0.15.

For the variant GGGCGCCACAGCAGAAGCGUUCACGUCGCGGCCCCUGUCAGAUUCUGGUGAAUCUGCGAAUACUGCUGU [G4C U62A], the self-cleavage was found to be 0.157.

For the variant GGGUGCCACAGCAGAGGCGUUCACGUCGCGGCCCCUGUCAGAUUCUGGUGAAUCUGCGAAUUCUGCUGU [G4U A16G], the self-cleavage amounted to 0.444.

Take GGGUGCCACAGCAGACGCGUUCACGUCGCGGCCCCUGUCAGAUUCUGGUGAAUCUGCGAAUUCUGCUGU [G4U A16C]: the self-cleavage amounted to 0.0815.

As to GGGCGCCACAGCAGAAGCGUUCACGUCGCGGCCCCUGUCAGAUUCUGGUGAAUCUGCGAAUUCUGCUGC [G4C U69C], the self-cleavage worked out at 0.958.

In the case of GGGUGCCAUAGCAGAAGCGUUCACGUCGCGGCCCCUGUCAGAUUCUGGUGAAUCUGCGAAUUCUGCUGU [G4U C9U], the self-cleavage came out at 0.954.

Consider GGGCGCCACAGCAGAAGCGUUUACGUCGCGGCCCCUGUCAGAUUCUGGUGAAUCUGCGAAUUCUGCUGU [G4C C22U], for which the self-cleavage was found to be 0.074.

In the case of GGGCGCCACAGCAGAAGCGUUGACGUCGCGGCCCCUGUCAGAUUCUGGUGAAUCUGCGAAUUCUGCUGU [G4C C22G], the self-cleavage was 0.082.

Turning to GGGUGCCACAGCAGAAGCGUUCACGUCGCGGCCCCUGUCAGAUUCUGGUGAAUCUGCGAGUUCUGCUGU [G4U A60G], the self-cleavage was determined as 0.302.

With GGGCGCCACAGCAGAAGCGUUCACGUCGCGGCCCCUGUCAGAUUCUGGUGAAUCUGCGACUUCUGCUGU [G4C A60C], the self-cleavage was found to be 0.188.

GGGCGCCACAGCAGAAGCGUUCACGUCGCGGCCCCUGUCAGAUUCUGGUGAAUCUGCGAGUUCUGCUGU [G4C A60G]: the self-cleavage is 0.235.

For the variant GGGCGCGACAGCAGAAGCGUUCACGUCGCGGCCCCUGUCAGAUUCUGGUGAAUCUGCGAAUUCUGCUGU [G4C C7G], the self-cleavage was 0.0794.

Take GGGCGCCACAGCAGAAGCGUUCACGCCGCGGCCCCUGUCAGAUUCUGGUGAAUCUGCGAAUUCUGCUGU [G4C U26C]: the self-cleavage worked out at 0.472.

Turning to GGGCGUCACAGCAGAAGCGUUCACGUCGCGGCCCCUGUCAGAUUCUGGUGAAUCUGCGAAUUCUGCUGU [G4C C6U], the self-cleavage was 0.132.

On to GGGUGCCACAGCAGAAGCGUUCAUGUCGCGGCCCCUGUCAGAUUCUGGUGAAUCUGCGAAUUCUGCUGU [G4U C24U], for which the self-cleavage was 0.193.

For the variant GGGCGCCACAGCAGAAGCGUUCAUGUCGCGGCCCCUGUCAGAUUCUGGUGAAUCUGCGAAUUCUGCUGU [G4C C24U], the self-cleavage worked out at 0.124.

Consider GGGCGCCACAGCAGAAGCGUUCACGUCGCGGCCCUUGUCAGAUUCUGGUGAAUCUGCGAAUUCUGCUGU [G4C C35U], for which the self-cleavage worked out at 0.0739.

For the variant GGGCACCACAGCAGAAGCGUUCACGUCGCGGCCCCUGUCAGAUUCUGGUGAAUCUGCGAAUUCUGCUGU [G4C G5A], the self-cleavage amounted to 0.0843.

With GGGUGCGACAGCAGAAGCGUUCACGUCGCGGCCCCUGUCAGAUUCUGGUGAAUCUGCGAAUUCUGCUGU [G4U C7G], the self-cleavage was found to be 0.0264.

As for GGGUGCAACAGCAGAAGCGUUCACGUCGCGGCCCCUGUCAGAUUCUGGUGAAUCUGCGAAUUCUGCUGU [G4U C7A], the self-cleavage turned out to be 0.0496.

Consider GGGCGCCACAGCAGAAGCGUUCACGUCGCGGCCCCUGUCAGAUUCUGGUGAAUCUGCGAAUUCUGCUAU [G4C G68A], for which the self-cleavage was found to be 0.976.

Turning to GGGCGCCACAGCAGAAGCGUUCACGUCGCGGCCCCUGUCAGAUUCUGGUGAAUCUGCGAAUUCUGCUCU [G4C G68C], the self-cleavage was 0.941.

For GGGUGCCACAGCAGAAGCGUUCACGUCGCGGCCCCUGUCCGAUUCUGGUGAAUCUGCGAAUUCUGCUGU [G4U A40C], the self-cleavage amounted to 0.199.

Turning to GGGCGCCACAGCAGAAGCGUUCACGUCGCGGCCCCUGUCAGAUUCUGGUGAAUCUGCGAAUUCGGCUGU [G4C U64G], the self-cleavage was determined as 0.355.

On to GGGUGCCACAGCAGAAGCGUUCACGUCGCGGCCCCUGUCAGAUUCUGGUGAAUCUGCGAAUUCUGCUGU [G4U], for which the self-cleavage is 0.806.

Turning to GGGCGCCACAGCAGAAGCGUUCACGUCGCGGCCCCUGUCAGAUUCAGGUGAAUCUGCGAAUUCUGCUGU [G4C U46A], the self-cleavage came to 0.663.

As to GGGCGCCACAGCAGAAGCGUUCACGUCGCGGCCCCUGUCAGAUUCGGGUGAAUCUGCGAAUUCUGCUGU [G4C U46G], the self-cleavage worked out at 0.601.

With GGGCGCCACAGCAGAAGCGUUCACGUCGCGGCCCCUGUCAGACUCUGGUGAAUCUGCGAAUUCUGCUGU [G4C U43C], the self-cleavage is 0.406.

As to GGGCGCCACAGCAGAAGCGUUCACGUCGCGGCCCCUGUCAGAGUCUGGUGAAUCUGCGAAUUCUGCUGU [G4C U43G], the self-cleavage is 0.26.

On to GGGUGCCCCAGCAGAAGCGUUCACGUCGCGGCCCCUGUCAGAUUCUGGUGAAUCUGCGAAUUCUGCUGU [G4U A8C], for which the self-cleavage was determined as 0.691.

Regarding GGGUGCCGCAGCAGAAGCGUUCACGUCGCGGCCCCUGUCAGAUUCUGGUGAAUCUGCGAAUUCUGCUGU [G4U A8G], the self-cleavage is 0.512.

Regarding GGGCGCCACAGCAGAAGCGUUCACGUCGCGGCCCCUGUCAGAUUCUGAUGAAUCUGCGAAUUCUGCUGU [G4C G48A], the self-cleavage was 0.731.

For GGGCGCCACAGCAGAAGCGUUCACGUCGCGGCCACUGUCAGAUUCUGGUGAAUCUGCGAAUUCUGCUGU [G4C C34A], the self-cleavage turned out to be 0.16.

As for GGGCGCCACAGCAGAAGCGUUCACGUCGCGGCCUCUGUCAGAUUCUGGUGAAUCUGCGAAUUCUGCUGU [G4C C34U], the self-cleavage turned out to be 0.383.

With GGGUGCCACAGCAGAAGCGUUCACGUCGCGGCCCCUGUCAGCUUCUGGUGAAUCUGCGAAUUCUGCUGU [G4U A42C], the self-cleavage stood at 0.179.

For the variant GGGCGCCACAGCAGAAGCGUUCACGUCGUGGCCCCUGUCAGAUUCUGGUGAAUCUGCGAAUUCUGCUGU [G4C C29U], the self-cleavage amounted to 0.131.

As for GGGCGCCACAGCAGAAGCGUUCACGUCGCGGCCCCUGCCAGAUUCUGGUGAAUCUGCGAAUUCUGCUGU [G4C U38C], the self-cleavage amounted to 0.302.

Regarding GGGCGCCACAGCAGAAACGUUCACGUCGCGGCCCCUGUCAGAUUCUGGUGAAUCUGCGAAUUCUGCUGU [G4C G17A], the self-cleavage worked out at 0.0822.

For GGGCGCCACAGCAGAAUCGUUCACGUCGCGGCCCCUGUCAGAUUCUGGUGAAUCUGCGAAUUCUGCUGU [G4C G17U], the self-cleavage came to 0.0737.
